The target of assay [1] is T1, dimeric full-ectodomain CDH23 fusion protein (mouse, UniProt Q99PF4 24-3064, SNAPtag coupled to a benzylguanine DNA tether or BG-Biotin (force spectroscopy), or to a benzylguanine-PEG15-biotin linker (biolayer interferometry)).
T1 construct: cadherin-23, mouse, the entire extracellular domain up to the last hydrophilic amino acid before the transmembrane domain (27 EC domains); The two halves carry opposing Fc heterodimerisation domains and the same cadherin ectodomain; also called full-length dimer; CDH23 dimer; source: HEK Expi293 cells, co-transfected, secreted; purified (Ni-NTA or TALON, size-exclusion on Superose 6 Increase)
T1 sequence (Q99PF4 24-3064): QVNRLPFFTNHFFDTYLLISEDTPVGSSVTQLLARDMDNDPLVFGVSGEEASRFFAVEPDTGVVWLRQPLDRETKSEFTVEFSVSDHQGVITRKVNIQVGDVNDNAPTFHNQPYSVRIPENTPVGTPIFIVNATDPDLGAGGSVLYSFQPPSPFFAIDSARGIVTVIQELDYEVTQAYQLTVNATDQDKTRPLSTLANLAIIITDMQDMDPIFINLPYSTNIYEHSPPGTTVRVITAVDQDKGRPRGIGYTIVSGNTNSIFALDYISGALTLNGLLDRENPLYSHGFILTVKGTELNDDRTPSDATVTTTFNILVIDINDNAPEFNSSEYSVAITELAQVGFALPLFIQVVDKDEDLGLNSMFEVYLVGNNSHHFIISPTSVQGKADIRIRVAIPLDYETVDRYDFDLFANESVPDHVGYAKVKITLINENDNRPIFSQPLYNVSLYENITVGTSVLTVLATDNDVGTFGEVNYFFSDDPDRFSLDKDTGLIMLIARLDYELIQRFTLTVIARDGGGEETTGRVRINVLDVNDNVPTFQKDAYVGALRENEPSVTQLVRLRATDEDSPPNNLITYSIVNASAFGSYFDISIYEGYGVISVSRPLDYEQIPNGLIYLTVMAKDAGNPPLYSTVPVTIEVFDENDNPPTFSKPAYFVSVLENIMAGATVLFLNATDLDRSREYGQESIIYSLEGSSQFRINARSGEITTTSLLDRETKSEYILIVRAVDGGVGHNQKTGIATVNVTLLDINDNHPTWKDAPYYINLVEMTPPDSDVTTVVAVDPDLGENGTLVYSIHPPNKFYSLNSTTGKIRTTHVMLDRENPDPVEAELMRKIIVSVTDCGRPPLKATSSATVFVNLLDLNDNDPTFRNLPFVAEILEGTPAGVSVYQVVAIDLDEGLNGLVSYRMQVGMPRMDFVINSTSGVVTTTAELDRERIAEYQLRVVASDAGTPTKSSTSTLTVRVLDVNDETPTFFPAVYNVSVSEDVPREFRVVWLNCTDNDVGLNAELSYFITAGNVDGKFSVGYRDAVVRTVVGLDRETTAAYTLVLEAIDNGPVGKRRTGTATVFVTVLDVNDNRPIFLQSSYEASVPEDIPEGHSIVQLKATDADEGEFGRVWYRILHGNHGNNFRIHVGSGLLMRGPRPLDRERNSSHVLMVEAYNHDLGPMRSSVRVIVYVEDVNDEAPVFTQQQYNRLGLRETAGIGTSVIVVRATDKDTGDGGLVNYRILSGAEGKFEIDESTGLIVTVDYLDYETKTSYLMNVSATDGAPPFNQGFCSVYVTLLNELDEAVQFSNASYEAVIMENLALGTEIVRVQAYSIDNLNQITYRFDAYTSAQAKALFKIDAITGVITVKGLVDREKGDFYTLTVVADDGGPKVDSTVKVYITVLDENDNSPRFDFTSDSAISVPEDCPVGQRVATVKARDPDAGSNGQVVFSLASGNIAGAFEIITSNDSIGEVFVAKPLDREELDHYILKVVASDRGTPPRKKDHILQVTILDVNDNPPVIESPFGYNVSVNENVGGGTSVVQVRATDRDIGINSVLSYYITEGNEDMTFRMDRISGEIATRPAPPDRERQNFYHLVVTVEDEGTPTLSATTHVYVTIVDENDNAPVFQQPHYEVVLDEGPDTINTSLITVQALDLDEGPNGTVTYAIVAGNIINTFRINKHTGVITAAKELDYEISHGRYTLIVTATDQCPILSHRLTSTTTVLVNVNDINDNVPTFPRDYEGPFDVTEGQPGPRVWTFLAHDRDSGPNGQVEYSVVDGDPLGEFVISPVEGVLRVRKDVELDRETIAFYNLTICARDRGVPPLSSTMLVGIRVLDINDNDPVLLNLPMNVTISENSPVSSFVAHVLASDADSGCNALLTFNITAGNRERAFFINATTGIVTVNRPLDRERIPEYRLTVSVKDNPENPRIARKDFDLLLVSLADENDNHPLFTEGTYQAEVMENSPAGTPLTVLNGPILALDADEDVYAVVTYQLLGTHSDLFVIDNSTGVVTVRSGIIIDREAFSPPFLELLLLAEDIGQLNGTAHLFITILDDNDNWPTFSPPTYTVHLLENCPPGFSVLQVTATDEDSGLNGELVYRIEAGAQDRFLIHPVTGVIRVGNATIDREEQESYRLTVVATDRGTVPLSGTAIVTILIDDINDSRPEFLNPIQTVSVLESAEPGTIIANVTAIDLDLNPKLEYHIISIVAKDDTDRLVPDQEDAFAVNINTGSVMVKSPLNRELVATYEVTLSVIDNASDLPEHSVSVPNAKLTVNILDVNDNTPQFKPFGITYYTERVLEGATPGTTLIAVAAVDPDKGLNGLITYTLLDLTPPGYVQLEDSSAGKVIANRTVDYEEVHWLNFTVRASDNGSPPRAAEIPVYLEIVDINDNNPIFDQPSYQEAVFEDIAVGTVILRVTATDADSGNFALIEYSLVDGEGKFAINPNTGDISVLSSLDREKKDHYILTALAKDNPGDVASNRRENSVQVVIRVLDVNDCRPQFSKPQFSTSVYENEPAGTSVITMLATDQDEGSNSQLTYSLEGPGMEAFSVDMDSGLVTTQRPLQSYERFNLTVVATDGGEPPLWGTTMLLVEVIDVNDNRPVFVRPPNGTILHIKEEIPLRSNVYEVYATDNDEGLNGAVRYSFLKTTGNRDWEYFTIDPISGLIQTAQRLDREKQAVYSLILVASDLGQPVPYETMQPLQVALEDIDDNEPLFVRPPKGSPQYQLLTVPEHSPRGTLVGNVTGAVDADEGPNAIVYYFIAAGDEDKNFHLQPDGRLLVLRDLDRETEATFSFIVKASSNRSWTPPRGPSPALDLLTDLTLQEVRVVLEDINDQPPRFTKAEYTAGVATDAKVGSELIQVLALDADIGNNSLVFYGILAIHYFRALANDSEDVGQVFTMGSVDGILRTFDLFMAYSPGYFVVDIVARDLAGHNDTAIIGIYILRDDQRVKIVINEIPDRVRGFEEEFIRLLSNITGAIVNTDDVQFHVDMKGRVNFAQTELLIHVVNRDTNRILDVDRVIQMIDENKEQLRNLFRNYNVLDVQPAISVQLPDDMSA
Briefly: BLI; CDH23 biotinylated on its SNAPtag and immobilised on streptavidin-coated PEG-biotin aminopropylsilane sensors; 10–300 nM PCDH15 in solution; TBS-Tween + Ca^2+ buffer, 2 mM Ca^2+; traces of a drift sensor and of PCDH15 lacking EC1-2 subtracted; dissociation fitted with a single exponential; on-rates measured at 300 nM PCDH15 (effective on-rate); Octet Red384. The conditions noted are these: both partners purified. (In general: In BLI a coated tip is dipped into the sample, and binding shifts an interference pattern.)

Assay [2] addresses T2, single-bond CDH23 fusion protein (EC1-5/EC3-5 Fc heterodimer with one EC1-2 binding domain) (mouse, SNAPtag coupled to a benzylguanine DNA tether).
T2 construct: signal peptide in the construct (native; its cleavage on secretion was confirmed); cadherin-23, mouse, EC1-5; signal peptide in the construct (native, preserved by the deletion); cadherin-23, mouse, the EC1-5 construct (base pairs 408-2066 of NM_023370) from which amino acids 25-228 (EC1-2) were deleted, leaving EC3-5; 408-2066 is 1659 bp (553 codons), probably residues 1-553 of the precursor; …
Briefly: single-molecule force spectroscopy (dual-beam optical tweezers); each protein held on a streptavidin-coated silica bead through a DNA tether on its SNAPtag (R113G proteins and fast loading rates: biotinylated directly with BG-Biotin); room temperature, TBS-TB + Ca^2+ buffer (20 mM Tris, 125 mM NaCl, pH 7.4, 0.02% Tween-20, blocking reagent), 2 mM Ca^2+; loading rates 0.39-377.8 pN s^−1; constants from fits of the …. The note with it: both partners purified.

B1: dimeric full-ectodomain PCDH15 fusion protein (Fc fusion)
chain: not shown
modifications: SNAPtag coupled to a benzylguanine DNA tether, or to BG-Biotin in some force-spectroscopy conditions
notes: protocadherin-15, mouse, the entire extracellular domain up to the last hydrophilic amino acid before the transmembrane domain (11 EC domains); The two halves carry opposing Fc heterodimerisation domains and the same cadherin ectodomain; also called full-length dimer; full-ectodomain mouse PCDH15; source: HEK Expi293 cells, co-transfected, secreted; purified (Ni-NTA or TALON, size-exclusion on …)
For orientation: kon means a measure of how fast the partners come together. Regarding B1, the kon in assay [1] was 350000 M⁻¹ s⁻¹.

B2: dimeric full-ectodomain PCDH15 R113G^+/+ fusion protein (both strands mutated) (Fc fusion)
chain: not shown
modifications: SNAPtag coupled to BG-Biotin (force spectroscopy without the DNA tether)
notes: A human hereditary deafness mutation put into the mouse protein by site-directed mutagenesis; also called homozygous R113G^+/+; source: HEK Expi293 cells, co-transfected, secreted; purified (Ni-NTA or TALON, size-exclusion on Superose 6 Increase)
With B2, in assay [1], the “mean lifetime of the connection at zero force” value came to 37 s.

B3: single-bond PCDH15 fusion protein (EC1-5/EC3-5 Fc heterodimer with one EC1-2 binding domain) (Fc fusion)
chain 1: not shown
chain 2: QGDDLGPMFLPCVLVPNTRDCRPLTYQAAIPELRTPEELNPILVTPPIQAIDQDRNIQPPSDRPGILYSILVGTPEDYPRFFHMHPRTAELTLLEPVNRDFHQKFDLVIKAEQDNGHPLPAFASLHIEILDENNQSPYFTMPSYQGYILESAPVGATISESLNLTTPLRIVALDKDIEDTKDPELHLFLNDYTSVFTVTPTGITRYLTLLQPVDREEQQTYTFLITAFDGVQESEPVVVNIRVMDANDNTPTFPEISYDVYVYTDMSPGDSVIQLTAVDADEGSNGEISYEILVGGKGDFVINKTTGLVSIAPGVELIVGQTYALTVQASDNAPPAERRHSICTVYIEVLPPNNQ
modifications: SNAPtag coupled to a benzylguanine DNA tether
Usually koff stands for a measure of how fast the partners let go of each other. Consider B3, for which the koff in assay [2] worked out at 0.5 ± 0.1 s⁻¹.

For the origin of these results see PMC7870652, “Single-molecule force spectroscopy reveals the dynamic strength of the hair-cell tip-link connection” (Nature Communications, 2021).
